Measurements as given in patent US20260258115A1 (MAPP BIOPHARMACEUTICAL, published 2026).

B1: ADI-22778 (antibody, V domains shown)
VH: EVQLVESGPGLVKPSETLSLTCTVSGGSINSYSWTWIRQPPGKGLEWLGSFDYSGSNTYNPSLKSRVTIAVDTSKNQFSLKLTSATAADTAVYYCARAPVYDSSGYYLYYFDNWGQGTLVTVSS
VL: DIQMTQSPSSLSASVGDRVTITCRASQSIASYLNWYQQKPGKAPKLLIFAASNLHSGVPSRFSGSGSGTTFTLTISSLQPEDFATYYCQQSYSIRFFTFGPGTKLEIK
notes: full-length IgG
B2: ADI-22780 (antibody, V domains shown)
VH: EVQLVESGPTLVKPTQTLTLTCTFSGFSLSTSGVGVGWIRQPPGKALEWLALIYWDDDKRYSPSLKSRLTITKDTSKNQVVLTMTNMDPVDTATYYCAHRGRQYSYGYYYFDYWGQGTLVTVSS
VL: QSVLIQPASVSGSPGQSITISCTGTSSDVGGYNFVSWYQQHPGKAPKLMIYDVSNRPSGVSNRFSGSKSGNTASLTISGLQAEDEADYYCSSYTSSTLDVFGTGTKVTVL
notes: full-length IgG
B3: ADI-14339 (antibody, V domains shown)
VH: QVQLVESGGGVLQPGRSLRLPCEASGFTFNKYAMHWVRQAPGKGLEWVAAVSYDGGNKFYAESVKGRFTISRDNSKNTLYLQMNSLKPEDTAVYYCARDRWELLHGLDYWGLGTLVTVSS
VL: SYELTQPPSVSVSPGQTARITCSGEALAKQYAYWYQQKPGQAPVLVIYKDNERPSGISERFSGSSSGTTVTLTISGVQAEDEADYYCQSADSSGTYVFGTGTKVTVL
notes: full-length IgG; also called Ab 7
B4: ADI-14351 (antibody, V domains shown)
VH: EVQLLESGGGLVQPGGSLRLSCSASGFTFSTYWMHWVRQAPGKGLVWVSRINGDGNDRNYADSVKGRFTISRDNAKNTVYLQMNSLRAEDTAVYYCARGGATGDFYFGMDVWGQGTTVTVSS
VL: SYELTQPPSVSVAPGKTAKITCGGNNIGTKSVHWYQQKPGQAPVLVIYYDTDRPSGIPERFSGSNSGNTATLTISRVEAGDEADYYCQVWDSSNSDHVGVFGGGTQLTVL
notes: full-length IgG; also called Ab 19
B5: ADI-14352 (antibody, V domains shown)
VH: EVQLLETGPGLVKPSQTLSLICAVSGGSISSGGYSWSWIRQPPGKGLEWVGYISYSGSTYYNPSLKSRVTISVDTSKNQFSLKLNSVTAADTAVYFCARVDGIYSSGMRFDYWGQGTLVTVSS
VL: DIQLTQSPGTLSLSPGERATLSCRASQSVSSYYLAWYQQKPGQAPRLLIYGTSSRATGIPDRFSGSGSGTDFTLTISRLEPEDFAVYYCQQYGRSPLFGQGTRLEIK
notes: full-length IgG; also called Ab 20
B6: ADI-14354 (antibody, V domains shown)
VH: QVQLVQSGAEVKKPGSSAKVSCKASGGTFSSYTISWVRQAPGQGLEWMGRIIPFLGIANYAQKFQGRVTFTADKSTSTVYMDLSRLRSEDTALYYCAREPMYYGGDSYAFDVWGQGTTVTVSS
VL: QSVLTQPASMSGSPGHSITISCTGTSSDVGAYNYVSWYQQHPGKAPKLMIYDVSNRPSGVSSRFSGSKSGNTASLTISGLQPEDEADYYCSSFTTSSTRVFGTGTKLTVL
notes: full-length IgG; also called Ab 22
B7: ADI-14358 (antibody, V domains shown)
VH: QVQLVQSGGGLVKPGGSLRLSCVASGFTFSDYYMTWIRQAPGKGLEWVSYISGSSAYTIYADSVKGRFTISRDNAKNSLYLQMNGLRAEDTAVYYCARVSWVRSLDSWGQGTLVTVSS
VL: QSALTQPASVSGSPGQSITISCTGSTSDVGLYNYVSWYQLHPGKAPKLIIYDVRHRPSGVSDRFSASKSGNTASLTISGLQAEDEADYYCCSYTSSSTYVFGSGTQLTVL
notes: full-length IgG; also called Ab 26
B8: ADI-14360 (antibody, V domains shown)
VH: QVQLVQSGAEVKKPGASVKVSCKASGYTFTTYSMHWVRQAPGQRLEWMGWINAGNGNTKYSQKFQGRVTITRDTSASTAYMELSSLRSEDTAVYYCARDGVGGAYYYGEMDVWGQGTTVTVSS
VL: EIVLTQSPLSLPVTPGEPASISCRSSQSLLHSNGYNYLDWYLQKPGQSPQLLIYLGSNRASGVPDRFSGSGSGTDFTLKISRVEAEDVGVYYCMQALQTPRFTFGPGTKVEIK
notes: full-length IgG; also called Ab 28
B9: ADI-14361 (antibody, V domains shown)
VH: EVQLLESGGGFVQPGGSLRLSCAASGFTFSSYAVNWVRQAPGKGLEWVSLISGSGRTDYTDSVKGRFTISRDNAKNTLFLQMNSLRVEDTAVYYCAKSWGSSGYGYLDYWGQGTLVTVSS
VL: QSGLTQPPSVSGAPGQRVTISCTGSSSNIGPGTDVHWYQHFPGTAPKLLIFGNSNRPSGVPDRFSGSKSGTSASLAITGLQAEDEAYYYCQSYDRTLSASVFGGGTKLTVL
notes: full-length IgG; also called Ab 29
B10: ADI-14371 (antibody, V domains shown)
VH: EVQLVESGGGLVQPGGSLRLSCAASGFTFSNYAMTWVRQAPGKGLEWLSSISGSGGSTYYADSVKGRFTISRDNSRNTLYVQMNSLRVEDTAFYYCAKAFYEYGAGSPGDYWGQGTLVTVSS
VL: DIQLTQSPSSLSASVGDRVTITCRASQSIGTNLNWYQQKPGKAPKFLIYAASSLQRGVPSRFSGSGSGSEFTLTISSLQPEDFATYYCQQSYSTLPITFGQGTKLEIK
notes: full-length IgG; also called Ab 39
B11: ADI-14375 (antibody, V domains shown)
VH: EVQLVESGGGLVQPGGSLRLSCAVSGFTFSNYAVSWVRQAPGKGLEWVSGISGSGGTTYYVDSVKGRFTVSRDNSKNTLFLQLNSLKAEDTAVYYCAKDWGYSGGRPYFDYWGQGTLVTVSS
VL: QSVLTQPPSVSGAPGQRVTISCTASSSNIGPIYDVHWYQQLPGTGPKLLIYGNNNRPSGVPDRFSGSKSGTSASLAITGLQAEDEADYYCQSYDTSLSVVFGGGTKLTVL
notes: full-length IgG; also called Ab 43
B12: ADI-14383 (antibody, V domains shown)
VH: QITLKESGPTLVKPTQTLTLTCTFSGFSLSTSGVGVGWIRQPPGKALEWLALIYWDEDKRYSPSLKTRLTITKDTSRNQVKLTMTNMDPVDTATYYCAHQYYDILTGYPSPGAFDIWGQGTTVTVSS
VL: QPVLTQPASVSGSPGQSITISCTGTSSDVVSYNLVSWFQQHPGKAPKLMIYEVTRRPSGVSNRFSGSKSGNTASLTISGLQAEDEADYYCCAYTGTPVVFGGGTKLTVL
notes: full-length IgG; also called Ab 51
B13: ADI-25497 (antibody, V domains shown)
VH: EVQLLESGGGLVQPGGSLRLSCAASGFTFSSYWMSWVRQAPGKGLEWVANIKQDGSEKYYVDSVKGRFTISRDNAKNSLYLQMNSLRAEDTAVYYCARDGLLQYDFWSGYYDYWGQGTLVTVSS
VL: EIVLTQSPSSLSASVGDRVTITCRASQGISSWLAWYQQKPEKAPKSLIYAASSLQSGVPSRFSGSGSGTDFTLTISSLQPEDFATYYCQQYNSYPFTFGPGTKVDIK
notes: full-length IgG
B14: ADI-25547 (antibody, V domains shown)
VH: EVQLLESGGGLIQPGGSLRLSCAASGFTVSSNYMSWVRQAPGKGLEWVSVIYSGGSTYYADSVKGRFTISRDNSKNTLYLQMNSLRAEDTAVYYCARGGIADAFDIWGQGTMVTVSS
VL: ETTLTQSPSSVSASVGDRVTITCRASQGISSWLAWYQQKPGKAPKLLIYAASSLQSGVPSRFSGSGSGTDFTLTISSLQPEDFATYYCQQANSFPRTFGQGTKLEIK
notes: full-length IgG

Each binder was assayed against T1, RSV postfusion F (postF), subtype A (respiratory syncytial virus subtype A, UniProt P03420 26-513) (assay: BLI, IgG).
T1 construct: also called Postfusion subtype A; F deltaFP

**Q.** Which Kd does the source give for B1 here?
**A.** 0.209 nM

**Q.** Which Kd does the source give for B2 here?
**A.** 0.739 nM

**Q.** How did the Kd turn out when B3 was run?
**A.** 0.439 nM

**Q.** How did the Kd turn out when B4 was run?
**A.** 0.361 nM

**Q.** For B5, which Kd is on record?
**A.** 0.448 nM

**Q.** How did the Kd turn out when B6 was run?
**A.** 1.04 nM

**Q.** With B7 as the binder, how does the Kd read?
**A.** 0.656 nM

**Q.** With B8 as the binder, how does the Kd read?
**A.** 5.88 nM

**Q.** B9 was tested. Which Kd did it give?
**A.** 0.437 nM

**Q.** How did the Kd turn out when B10 was run?
**A.** 1.23 nM

**Q.** B11 was tested. Which Kd did it give?
**A.** 0.477 nM

**Q.** Which Kd does the source give for B12 here?
**A.** 0.434 nM

**Q.** For B13, which Kd is on record?
**A.** 18.4 nM

**Q.** For B14, which Kd is on record?
**A.** 21.5 nM

The binders below were run against T2, RSV postfusion F (postF), subtype B (respiratory syncytial virus subtype B) (assay: BLI, IgG).
T2 construct: also called Postfusion subtype B

**Q.** B1 was tested. Which Kd did it give?
**A.** 2.77 nM

**Q.** For B2, which Kd is on record?
**A.** 0.6 nM

**Q.** Which Kd does the source give for B3 here?
**A.** 0.376 nM

**Q.** Which Kd does the source give for B4 here?
**A.** 0.215 nM

**Q.** With B5 as the binder, how does the Kd read?
**A.** 0.383 nM

**Q.** With B6 as the binder, how does the Kd read?
**A.** 6.63 nM

**Q.** B7 was tested. Which Kd did it give?
**A.** 27.5 nM

**Q.** With B8 as the binder, how does the Kd read?
**A.** 9.03 nM

**Q.** With B9 as the binder, how does the Kd read?
**A.** 0.293 nM

**Q.** B10 was tested. Which Kd did it give?
**A.** 1.07 nM

**Q.** Which Kd does the source give for B11 here?
**A.** 3.31 nM

**Q.** With B12 as the binder, how does the Kd read?
**A.** 0.251 nM

**Q.** For B13, which Kd is on record?
**A.** 14.8 nM

**Q.** How did the Kd turn out when B14 was run?
**A.** 23.1 nM

The binders below were run against T3, RSV prefusion F (preF), subtype B (respiratory syncytial virus subtype B) (assay: BLI, IgG).
T3 construct: also called Prefusion subtype B

**Q.** For B1, which Kd is on record?
**A.** 4.02 nM

**Q.** With B2 as the binder, how does the Kd read?
**A.** 23.8 nM

**Q.** B3 was tested. Which Kd did it give?
**A.** 1.77 nM

**Q.** How did the Kd turn out when B4 was run?
**A.** 0.789 nM

**Q.** B5 was tested. Which Kd did it give?
**A.** 5.54 nM

**Q.** How did the Kd turn out when B6 was run?
**A.** 25.3 nM

**Q.** B7 was tested. Which Kd did it give?
**A.** 60.3 nM

**Q.** Which Kd does the source give for B8 here?
**A.** 26.8 nM

**Q.** With B9 as the binder, how does the Kd read?
**A.** 52.8 nM

**Q.** With B10 as the binder, how does the Kd read?
**A.** 8.43 nM

**Q.** For B11, which Kd is on record?
**A.** 3.21 nM

**Q.** How did the Kd turn out when B12 was run?
**A.** 1.75 nM

**Q.** With B13 as the binder, how does the Kd read?
**A.** 14.1 nM

**Q.** With B14 as the binder, how does the Kd read?
**A.** 20.3 nM
